Substitutions are numbered along the chain they refer to. Several values for one entry are separate records, joined by “and”; a condition that tells them apart may be missing. Equal values may be shown once.
B1: Nb20 (VHH)
VHH: QVQLVESGGGLVQAGGSLRLSCAVSGAGAHRVGWFRRAPGKEREFVAAIGASGGMTNYLDSVKGRFTISRDNAKNTIYLQMNSLKPQDTAVYYCAARDIETAEYIYWGQGTQVTVSS
B2: Nb21 (VHH)
VHH: B1 VHH with A27L, S52N, M55N, I105T
B3: Nb20 (VHH)
VHH: B1 VHH
B4: Nb78 (VHH)
VHH: B1 VHH with V24I, G28S, H30N, I77V, D98N, I105T
B5: Nb11 (VHH)
VHH: HVQLVESGGGLVQAGGSLRLSCAVSGASAERVGWFRRAPGKEREFVAAIGANGGSTNYLDSVKGRFTISRDNAKNTVYLQMNSLKPQDTAVYYCAARNLETFDYTYWGRGTQVTVSS
B6: Nb21 (VHH)
VHH: B1 VHH with A27L, S52N, M55N, I105T
B7: Nb17 (VHH)
VHH: HVQLVESGGGLVQAGGSLRLSCAASGSIFSSNAMSWYRQAPGKQRELVASITSGGNADYADSVKGRFTISRDKNTVYPEMSSLKPADTAVYYCHAVGQEASAYAPRAYWGQGTQVTVSS
B8: Nb17 (VHH)
VHH: B7 VHH
B9: Nb95 (VHH)
VHH: QVQLVESGGGLVQAGGSLRLSCAASGRTFSSYSMGWFRQAQGKEREFVATINGNGRDTYYTNSVKGRFTISRDDATNTVYLQMNSLKPEDTAIYYCAADKDVYYGYTSFPNEYEYWGQGTQVTVSS
B10: Nb95 (VHH)
VHH: B9 VHH
B11: Nb36 (VHH)
VHH: HVQLVESGGGLVQAGGSLTLTCAASGRTFSSETMDMGWFRQAPGKEREFVAADSWNDGSTYYADSVKGRFTISRDSAKNTLYLQMNSLKPEDTAVYYCAAETYSIYEKDDSWGYWGQGTQVTVSS
B12: Nb16 (VHH)
VHH: DVQLVESGGGLVQAGESLRLSCAASGDMFSSNAMAWYRQAPGKQRELVASITSGGNTNYADSVKGRFTISRDNAKNTVYLQMDSLKPEDTAVYYCNGVAYDYSWGRPRNFWGQGTQVTVSS
B13: Nb105 (VHH)
VHH: HVQLVESGGGLVQAGGSLRLSCAVSGRTFSTYGMAWFRQAPGKERDFVATITRSGETTLYADSVKGRFTISRDNAKNTVYLQMNSLKIEDTAVYYCAVRRDSSWGYSRDLFEYDYWGQGTQVTVSS
B14: Nb105 (VHH)
VHH: B13 VHH
B15: Nb89 (VHH)
VHH: HVQLVESGGGLVQAGGSLRLSCAASGGTFTTFRMAWFRQTPGKEREFVAASSWGFVNYADPVKGRFTISRDNAKNTVYLEMSSLKTEDTAVYYCAARNPGTGQYDYWGQGTQVTVSS
B16: Nb89 (VHH)
VHH: B15 VHH
B17: Nb89 (VHH)
VHH: B15 VHH
B18: Nb9 (VHH)
VHH: HVQLVESGGGLVQTGGSLRLSCAFSGYTFSTFPTAWFRQAPGKEREFVAGIRWNGGSRDYTEYADFVKGRFTISRDNAKNMIYLQMISLKPEDTALYYCAASHGVVDGTSVNGYRYWGQGTQVTVSS
B19: Nb34 (VHH)
VHH: DVQLVESGGGLVQAGGSLRLSCAASGFTFSNYVMYWGRQAPGKGREWVSGIDSDGSDTAYASSVKGRFTISRDNAKNTLYLQMNNLKPEDTALYYCVKSKDPYGSPWTRSEFDDYWGQGTQVTVSS
B20: Nb34 (VHH)
VHH: B19 VHH

Experiments:
[1] = biological target: SARS-CoV-2 spike glycoprotein (Wuhan-Hu-1 strain) on pseudotyped virus particles (SARS-CoV-2 (Wuhan-Hu-1 strain), UniProt P0DTC2 14-1273); assay: cell-based or functional assay
[2] = biological target: SARS-CoV-2 spike glycoprotein on authentic virus (Munich strain) (SARS-CoV-2 (Munich strain), UniProt P0DTC2 14-1273); assay: cell-based or functional assay
[3] = biological target: T1, SARS-CoV-2 Munich strain spike glycoprotein on authentic virus (SARS-CoV-2); assay: cell-based or functional assay
[4] = biological target: T2, SARS-CoV-2 (Wuhan-Hu-1 strain) spike glycoprotein on pseudotyped virus particles (SARS-CoV-2, UniProt P0DTC2 14-1273); assay: cell-based or functional assay
[5] = biological target: T1, SARS-CoV-2 Munich strain spike …; assay: cell-based or functional assay; remark: listed apart in the source
[6] = biological target: T2, SARS-CoV-2 (Wuhan-Hu-1 strain) spike …; assay: cell-based or functional assay; remark: listed apart in the source
[7] = biological target: T3, SARS-CoV-2 spike receptor-binding domain (RBD) (SARS-CoV-2, UniProt P0DTC2 319-541); assay: indirect ELISA, RBD coated on plate, 4PL fit
[8] = biological target: SARS-CoV-2 spike glycoprotein on pseudotyped SARS-CoV-2 (Wuhan-Hu-1 strain) particles (SARS-CoV-2, UniProt P0DTC2 14-1273); assay: cell-based or functional assay
[9] = biological target: SARS-CoV-2 spike glycoprotein on authentic SARS-CoV-2 (Munich strain, SARS-CoV-2/München-1.1/2020/929) (SARS-CoV-2, UniProt P0DTC2 14-1273); assay: cell-based or functional assay
[10] = biological target: SARS-CoV RBD (SARS-CoV, UniProt P59594 306-527)
[11] = biological target: SARS-CoV-2 spike receptor-binding domain (RBD), recombinant (SARS-CoV-2, UniProt P0DTC2 319-541); assay: SPR (Biacore 3000), RBD immobilized on the chip, Nb as analyte, 1:1 Langmuir fit
[12] = biological target: T3, SARS-CoV-2 spike receptor-binding …; assay: SPR (Biacore 3000), RBD immobilised, Nb as analyte, 1:1 Langmuir fit

| Binder | Pseudo-neutralization IC50 (Luciferase) [1] | Authentic virus PRNT IC50 [2] | Authentic virus PRNT IC50 [3] | Pseudo-neut IC50 Luciferase [4] | ELISA affinity [7] | other results |
| --- | --- | --- | --- | --- | --- | --- |
| B1 | 0.114 nM | 0.0422 nM |  |  |  | Pseudo-neutralization (GFP) [1]: < 0.5 nM |
| B2 |  |  | 0.022 nM | 0.0495 nM |  | Pseudo-neutralization (GFP) [4]: < 0.5 nM; IC50, SARS-CoV-2 PRNT [5]: 0.021 nM; IC50, pseudovirus assay [6]: 0.7 ng/ml and 0.045 nM |
| B3 |  |  |  | 0.102 nM |  | Pseudo-neutralization (GFP) [4]: < 0.5 nM; IC50, pseudovirus assay [6]: 0.0016 µg/mL |
| B4 | 0.509 nM | 0.766 nM |  |  | 0.61 nM |  |
| B5 | 1 nM | 0.78 nM |  |  | 0.39 nM |  |
| B6 | 0.038 nM | 0.0448 nM |  |  |  | Pseudo-neutralization (GFP) [1]: < 0.5 nM |
| B7 |  |  | 1.5 nM | 1.11 nM |  | IC50, virus neutralization in vitro (assay not stated) [6]: ~0.025 µg/mL; neutralization of SARS-CoV-2 (assay not stated) [6]: ≤ 100 ng/mL |
| B8 | 1.1 nM | 1.5 nM |  |  |  |  |
| B9 |  |  |  |  |  | Pseudo-neutralization IC50 (Luciferase) [8]: 10 nM; Authentic virus PRNT IC50 [9]: 5.11 nM |
| B10 |  |  | 5.11 nM | 10 nM |  | IC50 [10]: 31.6 nM; neutralization of SARS-CoV-2 (assay not stated) [6]: < 150 ng/mL |
| B11 |  |  |  | 1.56 nM |  | neutralization of SARS-CoV-2 (assay not stated) [6]: ≤ 100 ng/mL |
| B12 | 1.57 nM | 3.16 nM |  |  | 0.37 nM |  |
| B13 |  |  |  |  |  | Pseudo-neutralization IC50 (Luciferase) [8]: 5 nM; Authentic virus PRNT IC50 [9]: 5.1 nM |
| B14 |  |  | 5.07 nM | 5.11 nM |  | IC50 [10]: 3.76 nM; neutralization of SARS-CoV-2 (assay not stated) [6]: < 150 ng/mL |
| B15 |  |  |  |  |  | Kd [11]: 0.108 nM; koff [11]: 0.000624 s⁻¹; Pseudo-neutralization (GFP) [8]: < 0.5 nM; Pseudo-neutralization IC50 (Luciferase) [8]: 0.129 nM; Authentic virus PRNT IC50 [9]: 0.154 nM |
| B16 |  |  |  |  | 1.09 nM | kon [12]: 5.78e+06 M⁻¹ s⁻¹ |
| B17 |  |  | 0.154 nM | 0.133 nM |  | Pseudo-neutralization (GFP) [4]: < 0.5 nM; IC50, pseudovirus assay [6]: 2 ng/ml and 0.129 nM |
| B18 | 1.5 nM | 1.72 nM |  |  | 0.89 nM |  |
| B19 | 2 nM | 1.12 nM |  |  | 0.47 nM |  |
| B20 |  |  | 1.12 nM | 1.99 nM |  | neutralization of SARS-CoV-2 (assay not stated) [6]: < 150 ng/mL |

From patent US20240043505A1 (UNIVERSITY OF PITTSBURGH OF THE COMMONWEALTH SYSTEM OF …, published 2024)
